Experimental data reported in the supplement of paper PMC9170038.

Test system: MS2 coat protein
Experiment: apparent KD of MS2 coat protein; designed switch direction (-1 OFF switch, 1 ON switch): -1; higher = weaker reporter binding
Procedure, shortened: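 On Illumina chips, designed RNA switches with common flanks were made by stalled E. coli RNA polymerase. Titrations with SNAP-549-labelled MS2 coat protein, doubling from 0.7 or 1.5 nM to 3 µM, were done with no input, with 200 uM small-molecule ligand, or with an oligonucleotide input. Apparent KD is the median per design over clusters, from curve fits of normalised cluster fluorescence.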

[1] = input ligand: microRNA oligo, concentration not stated
[2] = Eterna round: R95, input ligand: microRNA oligo, concentration not stated
[3] = Eterna round: R95, input ligand: FMN 200 uM
[4] = Eterna round: R95, input ligand: none

| Sequence | apparent KD of MS2 coat protein (input ligand: FMN 200 uM) | apparent KD of MS2 coat protein [1] | apparent KD of MS2 coat protein (input ligand: none) | apparent KD of MS2 coat protein [2] | apparent KD of MS2 coat protein [3] | apparent KD of MS2 coat protein [4] |
| --- | --- | --- | --- | --- | --- | --- |
| UACCUGAGGCUUUGCUUUAGGCUUACAUGAGGAUCACCCAUGUAGGAUAUGGUAGGCUUUGCUUACCAGAAGGACAUGGUAAUU [JL ENG3 1.07] (Eterna round: R96, puzzle: Exclusion NG 3) | 90.9 nM | 59.9 nM | 64.6 nM | – | – | – |
| UAAUUAAAUGUGAGGAUAUGCUGGUCCUUGGAUCAGCAGAAGGCACAUGAGGAUCACCCAUGUAAUUUAUUUAU [Mat - Exclusion 4 - JL Mod - D59] (puzzle: Brourd's mod of Exclusion 4) | – | – | – | 54.3 nM | – | – |
| ACCAGCAUACGGAGAUCCAACAUGAGGAUCACCCAUGUCUGGAAAGCUUUUUGCUUGUCUUAUCCUCCUCUGUGUGC [Design #2] (Eterna round: R97, puzzle: Sensor, turn-off variant 1) | 17.5 nM | – | 16.6 nM | – | – | – |
| AGUAGUUGUUUCCGUUCUUACAUGAGGAUCACCCAUGUUUCUUGUCGUGCUCGCGUUGCUCGUCAGACUACCAGUUG [salish99_TOv1_r3_061] (puzzle: Sensor v3, turn-off variant 1) | – | – | – | 73.7 nM | 62.4 nM | 87.6 nM |
| CCCGAUGGAUAGGAUAUCCGGCAAGUAUGCUAUGGAGAAGGGUUCACAUGAGGAUCACCCAUGUGGGUUAAACG [Eternabot (L1) Solution 74] (Eterna round: R97, puzzle: Exclusion 6) | 22 nM | – | 19.3 nM | – | – | – |
| GGGCCCGGUGUGAGGAUAUGAGUUCGGAAAUGAGCUUAGAAGGCACAUGAGGAUCACCCAUGUAAGCCGGGCCC [-34.2, -32.1 kcal, A 26%, 1-0] (Eterna round: R97, puzzle: Brourd's mod of Exclusion 4) | 14.3 nM | – | 35.6 nM | – | – | – |
| UUUUAACAUGAGGAUCACCCAUGUGAGGAUAUCGAAAUUUAUAUUAAUAUUUAUUAAACGAGAAGGCACAUUUU [JMF 59] (puzzle: Exclusion 1) | – | – | – | 82 nM | – | – |
| ACUGUUUGAUACCUCUAAUACAUGAGGAUCACCCAUGUUAUCGAGGAUAUGCAUUAGAGUGGUUAGCAGAAGGCGAAGUAAUUG [JR_ExcNG3_Sub031] (Eterna round: R96, puzzle: Exclusion NG 3) | 17 nM | 14.2 nM | 21.6 nM | – | – | – |
| GGAGGAGAGGUAAGGAUAUGGUGGUGGAAACACCACCAGAAGGUACAUGAGGAUCACCCAUGUAAGGAAGGAGG [AK-MS2ROC-r4-Bmoexclusion4-17.1] (Eterna round: R97, puzzle: Brourd's mod of Exclusion 4) | 26.7 nM | – | 26.6 nM | – | – | – |
| GCCUCACUUGAGGAUCACCCAAGUCAGGAUAUCUACAGGCCGGCCAUACCGACCUGCAAGAGAAGGGACUCUAA [Aristi] (Eterna round: R97, puzzle: Exclusion 1) | 211 nM | – | 31.4 nM | – | – | – |
| AAAUAAUCAGGAUAUACAUGAGGAUCACCCAUGUACCUCUUGUACGAGGGCCGCCCGUGUAGAAGGGAUGACAA [Arralara] (puzzle: Exclusion 3) | – | – | – | 40.1 nM | 72.6 nM | 40 nM |
| CCGGCGUCAGGAUAUCGUAGCAGGACAUUCAGUCGCGGCUAUGAGAAGGGACAUGAGGAUCACCCAUGUCCUCA [Eternabot (Original) Solution 22] (Eterna round: R97, puzzle: Exclusion 4) | 29.5 nM | – | 21.5 nM | – | – | – |
| GUCAUCAAACAUGGGAUAAACAUGAGGAUCACCCAUGUUAACAAGUUUUUUGCUCGUCUUAUAAUAAGUUUGAUGAC [Antenna 11 - Jieux - Sensor, turn-off variant 1] (Eterna round: R97, puzzle: Sensor, turn-off variant 1) | 12.4 nM | – | 13.5 nM | – | – | – |
| UUUUAACAUGAGGAUCACCCAUGUGAGGAUAUCGAUAUUUAUAUUAAUAUUAAUAAAACGAGAAGGCACAUUUU [JMF 7] (puzzle: Exclusion 1) | – | – | – | 65.2 nM | – | – |
| CUCUUGUCAGGAUAUCAACGCCAUCCACAUGGACGGCGAAAUGAGAAGGGACAUGAGGAUCACCCAUGUUAAAA [Xeveleqube] (puzzle: Exclusion 4) | – | – | – | 117 nM | 27.3 nM | 139 nM |
| CCAAGCUUAUUCAUUAACCACAUGAGGAUCACCCAUGUAUAGGCAAUUAUGACUGGGCCAUCUGGUGCUCGUCUUAU [Sensor-V1 #29] (Eterna round: R97, puzzle: Sensor, turn-off variant 1) | 16.2 nM | – | 15.2 nM | – | – | – |
| CAGUACUGAGGAUAUACAUGAGGAUCACCCAUGUGGGAGAUACUAGUGAGGUCGAUUAGUAGAAGGCAGUACUG [Mat X3R4 m21] (Eterna round: R97, puzzle: Exclusion 3) | 903 nM | – | 184 nM | – | – | – |
| GAUUGAGCUGUUAGGAUAUCCGCAGGCCGCCUGGAGGAGAAGGAACAUGAGGAUCACCCAUGUGCACGGGAGGC [Xemaesti] (Eterna round: R97, puzzle: Brourd's mod of Exclusion 4) | 13.4 nM | – | 15.8 nM | – | – | – |
| UUCACAUGGACAUAAGAUCACAUGAGGAUCACCCAUGUGAAUAACAAGCUUUUUGUUCGUCUUAUGUCCAAUAAUAG [Stov1/14-B2] (Eterna round: R97, puzzle: Sensor, turn-off variant 1) | 13.7 nM | – | 13.5 nM | – | – | – |
| GUCUUACAUGAGGAUCACCCAUGUGAGGAUAUGGAUUCGCUGGCCGUAGCCAGUGGAUCCAGAAGGCGCAUGAU [JL-ex1-4.04] (Eterna round: R97, puzzle: Exclusion 1) | 50.9 nM | – | 39.2 nM | – | – | – |
| AAUAAUAAGGAGGAUAUCGUAUCGGAAACGAUACGAGAAGGCCUAACAUGAGGAUCACCCAUGUUCCUCAAUAA [Fiskers Ex 6 - 2] (puzzle: Exclusion 6) | – | – | – | 297 nM | 1320 nM | 311 nM |
| AGCUAGUGCCGAGGAUAUACAUGAGGAUCACCCAUGUAGGCGUGAGGCUUUGUCUCACGCGAGAUGUAGAAGGCGGCGUUGGCA [JL ENG2 1.52] (Eterna round: R96, puzzle: Exclusion NG 2) | 60.5 nM | 14.1 nM | 21.7 nM | – | – | – |
| CCUCUACAUGAGGAUCACCCAUGUGAGGAUAUCAGUGCAAAGGGCACGUAUUAAAACGUGAGAAGGCACAUGGG [EX1 A.17] (Eterna round: R97, puzzle: Exclusion 1) | 88.9 nM | – | 135 nM | – | – | – |
| UCCUUACUUGAGGAUCACCCAAGUCAGGAUAUACACCAGAAUAAAUCCCAGCCCUGGCGUAGAAGGGACGGGUG [Esesle] (Eterna round: R97, puzzle: Exclusion 1) | 23 nM | – | 25.1 nM | – | – | – |
| AUUAAACAUGUAGGAUAUGCGUGGCGAAGCUAUGCAGAAGGACAUGAGGAUCACCCAUGUAAGAGCGUCUGCGUACAGAUGCAA [Mat - Exclusion NG 1 - Mod of JL - D85] (Eterna round: R96, puzzle: Exclusion NG 1) | 563 nM | 36.6 nM | 61.5 nM | – | – | – |
| ACUCGACAUGAGGAUCACCCAUGUGAGGAUAUGGCCUGUAUGGCGUGAGCUGGCUCAGUCAGAAGGCGCGUGGG [salish99_ex1_r4_047] (Eterna round: R97, puzzle: Exclusion 1) | 151 nM | – | 123 nM | – | – | – |
| GCUUGUAGAGGAUAUACAAGGGCCUUAGCGGAUAACACCGCACAUGAGGAUCACCCAUGUAGAAGGCUACCACC [Veorlace] (puzzle: Exclusion 2) | – | – | – | 16.6 nM | – | – |
| GGUUGGCGAGGAUAUACAUGAGGAUCACCCAUGUGAGAGAAAAAAGUGAGGAAGAAAAGUAGAAGGCGCUGACC [salish99_ex3_r3_048] (puzzle: Exclusion 3) | – | – | – | 44.6 nM | 256 nM | 53.9 nM |
| ACAUGACUGCUAGGAUAUAGAUGACAUGAGGAUCACCCAUGUUGUCUCAUGUUUAUGGAAACGGACUAGAAGGAGUAGUAUAUG [Ex NG2 #15] (Eterna round: R96, puzzle: Exclusion NG 2) | 20.6 nM | 14.5 nM | 21.3 nM | – | – | – |
| AGAUAGUGCAGAGGAUAUCGUAAUAGAAAGAAUCGAGAAGGCUGACAUGAGGAUCACCCAUGUGAUGUCUUGAGACUACAUGGU [Prohibition 34 - Jieux - Exclusion NG 1] (Eterna round: R96, puzzle: Exclusion NG 1) | 460 nM | 62.8 nM | 83.1 nM | – | – | – |
